Square brackets hold non-standard residues; d marks the D form. Peptide text beside a SMILES is read from it. * marks the point of attachment. Sta = CC(C)C[C@H](N)[C@@H](O)CC(=O)O; Isovaleryl = CC(C)CC(=O)*
Legend:
[1] = system: Nepenthes enzymes; assay: enzyme inhibition testing, BSA digestion by Nepenthes enzymes, SDS-PAGE; format: biochemical; conditions: BSA 1 mg/ml, 0.12 μM Nepenthes enzymes, 15 min at 37° C.; inhibitors at 1 mM
Experimental: Inhibitors: PMSF (phenylmethylsulfonyl fluoride), P (pepstatin), L (leupeptin), E (EDTA and EGTA), DTT (dithiothreitol), ZPP (Z-Pro-Pro-aldehyde-dimethyl acetal). All inhibitor concentrations at 1 mM except where noted. Extract: fluid protein extract, M: lane markers. For enzyme inhibition testing, bovine serum albumin (1 mg/ml) was digested with 0.12 μM Nepenthes enzymes for 15 min at 37° C., quenched by brief boiling and then analyzed by 10% SDS-PAGE. The enzymes were pretreated with controls and inhibitors at 4° C. for 2 days prior to digestion experiments. PMSF, pepstatin, leupeptin, EDTA, EGTA, DTT from Sigma-Aldrich, and ZPP (Z-Pro-Pro-aldehyde-dimethyl acetal) from Bachem.

[2] = system: NOD DQ8 mice; assay: transgenic NOD/HLA-DQ8 mouse model of gliadin sensitivity
[3] = system: protein standards; assay: cleavage preferences on protein standards, LC-MS/MS; format: biochemical
Experimental: C-terminal cleavage preferences (P1 position) as a function of storage time at elevated temperature. Fluid concentrate was incubated at 37° C. for 0-7 days. […] Data were collected from 2-minute in-solution digestions of protein standards at 37° C. (pH 2.5), and cleavage preferences were determined using LC-MS/MS methods. For each amino acid, cleavage preferences were estimated by calculating the number observed terminal residues relative to the total number of residues, in percent.
Data were generated and collected as described for FIG. 1A.
Data are shown as relative % cleavage to the total, as defined above, using LC-MS/MS data from a set of protein standards. Samples were digested in solution for 5 minutes at 37° C. in this comparison, for all three enzyme preparations.
Data are provided as described for FIG. 1C.
Data was generated using HCD fragmentation on an LC-Orbitrap Velos instrument, and data searched against the sequence of APLF in Mass Spec Studio assuming no enzyme specificity, and results were cut off at a peptide false discovery rate (FDR) of 0.5%. Figure discloses SEQ ID NO: 87.

[4] = system: crude gliadin; assay: SDS-PAGE and proteomic LC-MS/MS analysis of crude gliadin digests; format: biochemical, Triticum aestivum; conditions: crude gliadin slurry digested with purified neprosin alone
Experimental: Digestions at pH 2.5 and 37° C., for 90 min. All concentrations in μM. M: Molecular weight markers, and gliadin: total crude gliadin in the absence of protease. […] Peptide data from LC-MS/MS runs, with intensities obtained using Protein Deconvolution 1.0. […] A stock gliadin slurry of 20-50 mg/ml was prepared in acidic solution (100 mM glycine HCl, pH 2.5) and briefly sonicated to further break up large particulates and promote suspension. Digestions of 10 mg/mL gliadin slurries were initiated by addition of enzyme (pepsin, fluid enzymes or both) and held at 37° C. with gentle rotation. Digest progress was monitored by gravimetric analysis, optical transmission, SDS-PAGE and mass spectrometry. For gravimetric analysis, digests were quenched by boiling and treated with TCA/chloroform, followed by centrifugation to recover undigested or poorly digested protein. For monitoring with optical transmission, digestion reactions were conducted in 96-well plate with ≥3 replicates of each reaction condition, and turbidity monitored at 595 nm at 37° C. every 2 minutes, for 90 minutes (SpectraMax plate reader, Molecular Devices). The plate was shaken at medium speed briefly between measurements. The digests were quenched after 90 min reaction by boiling for 10 minutes (confirmed to have no impact on digestion profile, a posteriori). An aliquot of the reaction mixture was analyzed on an 8% SDS-PAGE gel. The remaining amount was centrifuged and the supernatant was analyzed by mass spectrometry. Supernatant was analyzed by data-dependent LC-MS/MS, in two 1-hour reversed phase gradient runs, configured for top-10 ion selection using CID in a high/low configuration. In one run, ion selection was restricted to 2+ and higher charge states. In the other run, ion selection was applied to 1+ charge states only. Data from both runs were combined and searched against all UniprotKB/Swiss-Prot entries for gliadin and glutenin from Triticum aestivum (25 proteins), using Mascot v2.3, configured for non-specific digestions and filtered for peptide hits with p<0.05. For estimation of peptide size distribution, all LC-MS spectra were combined and deconvoluted in Protein Deconvolution v1.0, with appropriate settings. For label-free quantitative analysis using the subset of the digest identified in the database search, the hit list was combined with the raw data in Mass Spec Studio and used to generate a set of peptide ion chromatograms, integrated over all isotopes to determine a weight-average intensity for each peptide sequence identified.

CC(C)CC(=O)N[C@H](C(=O)N[C@H](C(=O)N[C@@H](CC(C)C)[C@@H](O)CC(=O)N[C@@H](C)C(=O)N[C@@H](CC(C)C)[C@@H](O)CC(=O)O)C(C)C)C(C)C [Pepstatin, pepstatin] (Isovaleryl-VV[Sta]A[Sta]-OH)
suppression of enzyme activity by proteolytic inhibitors [1]: could only partially suppress enzyme activity

B1: recombinant nepenthesin II: recombinant aspartic protease of Nepenthes, SEQ ID NO.: 20 (protein)
chain: QSSSGIETPVYAGDGEYLMNVAIGTPDSSFSAIMDTGSDLIWTQCEPCTQCFSQPTPIFNPQDSSSFSTLPCESQYCQDLPSETCNNNECQYTYGYGDGSTTQGYMATETFTFETSSVPNIAFGCGEDNQGFGQGNGAGLIGMGWGPLSLPSQLGVGQFSYCMTSYGSSSPSTLALGSAASGVPEGSPSTTLIHSSLNPTYYYITLQGITVGGDNLGIPSSTFQLQDDGTGGMIIDSGTTLTYLPQDAYNAVAQAFTDQINLPTVDESSSGLSTCFQQPSDGSTVQVPEISMQFDGGVLNLGEQNILISPAEGVICLAMGSSSQLGISIFGNIQQQETQVLYDLQNLAVSFVPTQCGAS
small intestinal CD3+ intraepithelial lymphocyte (IEL) counts ([2]; gliadin codigested with pepsin 100:1 and fluid enzyme 264:1 or nepenthesin II 100:1, pepsin alone is positive control): significant reductions in IEL counts, to levels indistinguishable from the gliadin-free diet control | tolerability ([2]; sensitized mice challenged three times per week for three weeks with 5 mg treated gliadin): well tolerated | C-terminal (P1) cleavage specificity [3]: absence of C-terminal proline (P) cleavage

B2: neprosin: 29 kDa prolyl endoprotease isolated from Nepenthes pitcher fluid (fraction 2), SEQ ID NO.: 1 (protein)
chain: MQAKFFTFVILSSVFYFNYPLAEARSIQARLANKPKGTIKTIKGDDGEVVDCVDIYKQPAFDHPLLKNHTLQMQPSSYASKVGEYNKLEQPWHKNGECPKGSIPIRRQVITGLPVVKKQFPNLKFAPPSANTNHQYAVIAYFYGNASLQGANATINIWEPNLKNPNGDFSLTQIWISAGSGSSLNTIEAGWQVYPGRTGDSQPRFFIYWTADGYTSTGCYDLTCPGFVQTNNYYAIGMALQPSVYGGQQYELNESIQRDPATGNWWLYLWGTVVGYWPASIYNSITNGADTVEWGGEIYDSSGTGGFHTTTQMGSGHFPTEGYGKASYVRDLQCVDTYGNVISPTANSFQGIAPAPNCYNYQFQQGSSELYLFYGGPGCQ
weighted average peptide length for the low molecular weight fraction [4]: 12.5 | C-terminal (P1) cleavage specificity [3]: dominant Pro-X cleavage specificity

B3: recombinant nepenthesin I: recombinant aspartic protease of Nepenthes, SEQ ID NO.: 21 (protein)
chain: NGPSGVETSVYAGDGEYLMNLSIGTPAQPFSAIMDTGSDLIWTQCQPCTQCFNQSTPIFNPQGSSSFSTLPCSSQLCQALSSPTCSNNFCQYTYGYGDGSETQGSMGTETLTFGSVSIPNITFGCGENNQGFGQGNGAGLVGMGRGPLSLPSQLDVTKFSYCMTPIGSSTPSNLLLGSLANSVTAGSPNTTLIQSSQIPTFYYITLNGLSVGSTRLPIDPSAFALNSNNGTGGIIIDSGTTLTYFVNNAYQSVRQEFISQINLPVVNGSSSGFDLCFQTPSDPSNLQIPTFVMHFDGGDLELPSENYFISPSNGLICLAMGSSSQGMSIFGNIQQQNMLVVYDTGNSVVSFASAQCGAS
C-terminal (P1) cleavage specificity [3]: absence of C-terminal proline (P) cleavage

Reference: patent publication US10857214B2, “Compositions and methods for treating gluten intolerance and disorders arising therefrom” (Codexis, Inc., priority 2015, dated 2020)
